# Measurements reported in US12679878B2, “CRF2 receptor agonists and their use in therapy” (SANOFI, priority 2020, dated 2026).
# Starred links: 1 amine or outer side, 2 acyl side, 3 side chain; linkers in the order of their positions; H or OH if unused. Non-standard residues stand in square brackets, D forms with d. Groups on a side chain read outwards from the residue. No end group written: not given here. *: point of attachment. γGlu = O=C(O)[C@H](CCC(=O)[*:2])N[*:1]; Palmitoyl = CCCCCCCCCCCCCCCC(=O)*; AEEA = NCCOCCOCC(=O)O; Aib = CC(C)(N)C(=O)O
# B1: peptide of SEQ ID NO: 215 (peptide)
# peptide: IVLSLD[dV]PIGLK([γGlu-Palmitoyl])QILLKQERQKK[Aib]REQAETNKQILAQV-NH2
# modifications: N-terminus assumed
# SMILES: CCCCCCCCCCCCCCCC(=O)N[C@@H](CCC(=O)NCCCC[C@H](NC(=O)[C@H](CC(C)C)NC(=O)CNC(=O)[C@@H](NC(=O)[C@@H]1CCCN1C(=O)[C@H](NC(=O)[C@H](CC(=O)O)NC(=O)[C@H](CC(C)C)NC(=O)[C@H](CO)NC(=O)[C@H](CC(C)C)NC(=O)[C@@H](NC(=O)[C@@H](N)[C@@H](C)CC)C(C)C)C(C)C)[C@@H](C)CC)C(=O)N[C@@H](CCC(N)=O)C(=O)N[C@H](C(=O)N[C@@H](CC(C)C)C(=O)N[C@@H](CC(C)C)C(=O)N[C@@H](CCCCN)C(=O)N[C@@H](CCC(N)=O)C(=O)N[C@@H](CCC(=O)O)C(=O)N[C@@H](CCCNC(=N)N)C(=O)N[C@@H](CCC(N)=O)C(=O)N[C@@H](CCCCN)C(=O)N[C@@H](CCCCN)C(=O)NC(C)(C)C(=O)N[C@@H](CCCNC(=N)N)C(=O)N[C@@H](CCC(=O)O)C(=O)N[C@@H](CCC(N)=O)C(=O)N[C@@H](C)C(=O)N[C@@H](CCC(=O)O)C(=O)N[C@H](C(=O)N[C@@H](CC(N)=O)C(=O)N[C@@H](CCCCN)C(=O)N[C@@H](CCC(N)=O)C(=O)N[C@H](C(=O)N[C@@H](CC(C)C)C(=O)N[C@@H](C)C(=O)N[C@@H](CCC(N)=O)C(=O)N[C@H](C(N)=O)C(C)C)[C@@H](C)CC)[C@@H](C)O)[C@@H](C)CC)C(=O)O
# B2: peptide of SEQ ID NO: 216 (peptide)
# peptide: IVLSLD[dV]PIGLK([AEEA-AEEA-γGlu-Palmitoyl])QILLKQERQKK[Aib]REQAETNKQILAQV-NH2
# modifications: N-terminus assumed
# SMILES: CCCCCCCCCCCCCCCC(=O)N[C@@H](CCC(=O)NCCOCCOCC(=O)NCCOCCOCC(=O)NCCCC[C@H](NC(=O)[C@H](CC(C)C)NC(=O)CNC(=O)[C@@H](NC(=O)[C@@H]1CCCN1C(=O)[C@H](NC(=O)[C@H](CC(=O)O)NC(=O)[C@H](CC(C)C)NC(=O)[C@H](CO)NC(=O)[C@H](CC(C)C)NC(=O)[C@@H](NC(=O)[C@@H](N)[C@@H](C)CC)C(C)C)C(C)C)[C@@H](C)CC)C(=O)N[C@@H](CCC(N)=O)C(=O)N[C@H](C(=O)N[C@@H](CC(C)C)C(=O)N[C@@H](CC(C)C)C(=O)N[C@@H](CCCCN)C(=O)N[C@@H](CCC(N)=O)C(=O)N[C@@H](CCC(=O)O)C(=O)N[C@@H](CCCNC(=N)N)C(=O)N[C@@H](CCC(N)=O)C(=O)N[C@@H](CCCCN)C(=O)N[C@@H](CCCCN)C(=O)NC(C)(C)C(=O)N[C@@H](CCCNC(=N)N)C(=O)N[C@@H](CCC(=O)O)C(=O)N[C@@H](CCC(N)=O)C(=O)N[C@@H](C)C(=O)N[C@@H](CCC(=O)O)C(=O)N[C@H](C(=O)N[C@@H](CC(N)=O)C(=O)N[C@@H](CCCCN)C(=O)N[C@@H](CCC(N)=O)C(=O)N[C@H](C(=O)N[C@@H](CC(C)C)C(=O)N[C@@H](C)C(=O)N[C@@H](CCC(N)=O)C(=O)N[C@H](C(N)=O)C(C)C)[C@@H](C)CC)[C@@H](C)O)[C@@H](C)CC)C(=O)O
# B3: peptide of SEQ ID NO: 213 (peptide)
# peptide: IVLSLD[dV]PIKLK([γGlu-Palmitoyl])QILLKQERQKKQREKAEKNKQILAQV-NH2
# modifications: N-terminus assumed
# SMILES: CCCCCCCCCCCCCCCC(=O)N[C@@H](CCC(=O)NCCCC[C@H](NC(=O)[C@H](CC(C)C)NC(=O)[C@H](CCCCN)NC(=O)[C@@H](NC(=O)[C@@H]1CCCN1C(=O)[C@H](NC(=O)[C@H](CC(=O)O)NC(=O)[C@H](CC(C)C)NC(=O)[C@H](CO)NC(=O)[C@H](CC(C)C)NC(=O)[C@@H](NC(=O)[C@@H](N)[C@@H](C)CC)C(C)C)C(C)C)[C@@H](C)CC)C(=O)N[C@@H](CCC(N)=O)C(=O)N[C@H](C(=O)N[C@@H](CC(C)C)C(=O)N[C@@H](CC(C)C)C(=O)N[C@@H](CCCCN)C(=O)N[C@@H](CCC(N)=O)C(=O)N[C@@H](CCC(=O)O)C(=O)N[C@@H](CCCNC(=N)N)C(=O)N[C@@H](CCC(N)=O)C(=O)N[C@@H](CCCCN)C(=O)N[C@@H](CCCCN)C(=O)N[C@@H](CCC(N)=O)C(=O)N[C@@H](CCCNC(=N)N)C(=O)N[C@@H](CCC(=O)O)C(=O)N[C@@H](CCCCN)C(=O)N[C@@H](C)C(=O)N[C@@H](CCC(=O)O)C(=O)N[C@@H](CCCCN)C(=O)N[C@@H](CC(N)=O)C(=O)N[C@@H](CCCCN)C(=O)N[C@@H](CCC(N)=O)C(=O)N[C@H](C(=O)N[C@@H](CC(C)C)C(=O)N[C@@H](C)C(=O)N[C@@H](CCC(N)=O)C(=O)N[C@H](C(N)=O)C(C)C)[C@@H](C)CC)[C@@H](C)CC)C(=O)O
# B4: peptide of SEQ ID NO: 211 (peptide)
# peptide: IVLSLD[dV]PIKLK([AEEA-AEEA-γGlu-γGlu-Palmitoyl])QILLKQERQKK[Aib]RQKAEKNKQILAQV-NH2
# modifications: N-terminus assumed
# SMILES: CCCCCCCCCCCCCCCC(=O)N[C@@H](CCC(=O)N[C@@H](CCC(=O)NCCOCCOCC(=O)NCCOCCOCC(=O)NCCCC[C@H](NC(=O)[C@H](CC(C)C)NC(=O)[C@H](CCCCN)NC(=O)[C@@H](NC(=O)[C@@H]1CCCN1C(=O)[C@H](NC(=O)[C@H](CC(=O)O)NC(=O)[C@H](CC(C)C)NC(=O)[C@H](CO)NC(=O)[C@H](CC(C)C)NC(=O)[C@@H](NC(=O)[C@@H](N)[C@@H](C)CC)C(C)C)C(C)C)[C@@H](C)CC)C(=O)N[C@@H](CCC(N)=O)C(=O)N[C@H](C(=O)N[C@@H](CC(C)C)C(=O)N[C@@H](CC(C)C)C(=O)N[C@@H](CCCCN)C(=O)N[C@@H](CCC(N)=O)C(=O)N[C@@H](CCC(=O)O)C(=O)N[C@@H](CCCNC(=N)N)C(=O)N[C@@H](CCC(N)=O)C(=O)N[C@@H](CCCCN)C(=O)N[C@@H](CCCCN)C(=O)NC(C)(C)C(=O)N[C@@H](CCCNC(=N)N)C(=O)N[C@@H](CCC(N)=O)C(=O)N[C@@H](CCCCN)C(=O)N[C@@H](C)C(=O)N[C@@H](CCC(=O)O)C(=O)N[C@@H](CCCCN)C(=O)N[C@@H](CC(N)=O)C(=O)N[C@@H](CCCCN)C(=O)N[C@@H](CCC(N)=O)C(=O)N[C@H](C(=O)N[C@@H](CC(C)C)C(=O)N[C@@H](C)C(=O)N[C@@H](CCC(N)=O)C(=O)N[C@H](C(N)=O)C(C)C)[C@@H](C)CC)[C@@H](C)CC)C(=O)O)C(=O)O
# Target: human corticotropin-releasing factor 2α (CRF2α receptor) (human), Q13324
# Sequence (Q13324 20-411): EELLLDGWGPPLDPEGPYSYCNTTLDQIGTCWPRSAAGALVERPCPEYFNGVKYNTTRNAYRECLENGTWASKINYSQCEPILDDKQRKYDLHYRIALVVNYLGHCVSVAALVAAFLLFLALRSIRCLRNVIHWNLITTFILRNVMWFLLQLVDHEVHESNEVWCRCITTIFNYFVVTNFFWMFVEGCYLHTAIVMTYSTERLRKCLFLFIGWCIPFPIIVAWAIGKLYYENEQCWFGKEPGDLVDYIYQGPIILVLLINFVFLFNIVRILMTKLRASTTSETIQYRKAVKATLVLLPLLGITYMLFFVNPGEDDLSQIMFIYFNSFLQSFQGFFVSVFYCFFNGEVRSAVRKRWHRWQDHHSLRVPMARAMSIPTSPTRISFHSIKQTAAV
# Test: cell-based or functional assay
row,"EC50 [nM], 0% HSA (cAMP, HTRF) [nM]",Binder
1,0.15,B1
2,0.19,B2
3,4.48,B3
4,0.94,B4
